This note sets out measurements from publication PMC4157578 (Molecular Cell, 2014).

B2: CBP-Mcm3 (subunit of the MCM complex) (natural protein)
chain: MEGSTGFDGDATTFFAPDAVFGDRVRRFQEFLDTFTSYRDSVRSIQVYNSNNAANYNDDQDDADERDLLGDDDGDDLEKEKKAASSTSLNILPHRIIISLDDLREFDRSFWSGILVEPAYFIPPAEKALTDLADSMDDVPHPNASAVSSRHPWKLSFKGSFGAHALSPRTLTAQHLNKLVSVEGIVTKTSLVRPKLIRSVHYAAKTGRFHYRDYTDATTTLTTRIPTPAIYPTEDTEGNKLTTEYGYSTFIDHQRITVQEMPEMAPAGQLPRSIDVILDDDLVDKTKPGDRVNVVGVFKSLGAGGMNQSNSNTLIGFKTLILGNTVYPLHARSTGVAARQMLTDFDIRNINKLSKKKDIFDILSQSLAPSIYGHDHIKKAILLMLMGGVEKNLENGSHLRGDINILMVGDPSTAKSQLLRFVLNTASLAIATTGRGSSGVGLTAAVTTDRETGERRLEAGAMVLADRGVVCIDEFDKMTDVDRVAIHEVMEQQTVTIAKAGIHTTLNARCSVIAAANPVFGQYDVNRDPHQNIALPDSLLSRFDLLFVVTDDINEIRDRSISEHVLRTHRYLPPGYLEGEPVRERLNLSLAVGEDADINPEEHSNSGAGVENEGEDDEDHVFEKFNPLLQAGAKLAKNKGNYNGTEIPKLVTIPFLRKYVQYAKERVIPQLTQEAINVIVKNYTDLRNDDNTKKSPITARTLETLIRLATAHAKVRLSKTVNKVDAKVAANLLRFALLGEDIGNDIDEEESEYEEALSKRSPQKSPKKRQRVRQPASNSGSPIKSTPRRSTASSVNATPSSARRILRFQDDEQNAGEDDNDIMSPLPADEEAELQRRLQLGLRVSPRRREHLHAPEEGSSGPLTEVGTPRLPNVSSAGQDDEQQQSVISFDNVEPGTISTGRLSLISGIIARLMQTEIFEEESYPVASLFERINEELPEEEKFSAQEYLAGLKIMSDRNNLMVADDKVWRV
B4: Mcm7 (subunit of the MCM complex) (natural protein)
chain: MSAALPSIQLPVDYNNLFNEITDFLVTFKQDTLSSDATRNENEDENLDAENIEQHLLEKGPKYMAMLQKVANRELNSVIIDLDDILQYQNEKFLQGTQADDLVSAIQQNANHFTELFCRAIDNNMPLPTKEIDYKDDVLDVILNQRRLRNERMLSDRTNEIRSENLMDTTMDPPSSMNDALREVVEDETELFPPNLTRRYFLYFKPLSQNCARRYRKKAISSKPLSVRQIKGDFLGQLITVRGIITRVSDVKPAVEVIAYTCDQCGYEVFQEVNSRTFTPLSECTSEECSQNQTKGQLFMSTRASKFSAFQECKIQELSQQVPVGHIPRSLNIHVNGTLVRSLSPGDIVDVTGIFLPAPYTGFKALKAGLLTETYLEAQFVRQHKKKFASFSLTSDVEERVMELITSGDVYNRLAKSIAPEIYGNLDVKKALLLLLVGGVDKRVGDGMKIRGDINVCLMGDPGVAKSQLLKAICKISPRGVYTTGKGSSGVGLTAAVMKDPVTDEMILEGGALVLADNGICCIDEFDKMDESDRTAIHEVMEQQTISISKAGINTTLNARTSILAAANPLYGRYNPRLSPLDNINLPAALLSRFDILFLMLDIPSRDDDEKLAEHVTYVHMHNKQPDLDFTPVEPSKMREYIAYAKTKRPVMSEAVNDYVVQAYIRLRQDSKREMDSKFSFGQATPRTLLGIIRLSQALAKLRLADMVDIDDVEEALRLVRVSKESLYQETNKSKEDESPTTKIFTIIKKMLQETGKNTLSYENIVKTVRLRGFTMLQLSNCIQEYSYLNVWHLINEGNTLKFVDDGTMDTDQEDSLVSTPKLAPQTTASANVSAQDSDIDLQDA

Common to all, as to experiment: SEC
On the technique in general: In gel filtration, larger molecules generally elute earlier.

Assay [1] addresses B4.
Assay [2] deals with Mcm6 (subunit of the MCM complex) (S. cerevisiae, UniProt P53091 1-1017).
The target in assay [3] is B2.

Chain of Mcm6 (subunit of the MCM complex) (P53091 whole entry, one chain of several): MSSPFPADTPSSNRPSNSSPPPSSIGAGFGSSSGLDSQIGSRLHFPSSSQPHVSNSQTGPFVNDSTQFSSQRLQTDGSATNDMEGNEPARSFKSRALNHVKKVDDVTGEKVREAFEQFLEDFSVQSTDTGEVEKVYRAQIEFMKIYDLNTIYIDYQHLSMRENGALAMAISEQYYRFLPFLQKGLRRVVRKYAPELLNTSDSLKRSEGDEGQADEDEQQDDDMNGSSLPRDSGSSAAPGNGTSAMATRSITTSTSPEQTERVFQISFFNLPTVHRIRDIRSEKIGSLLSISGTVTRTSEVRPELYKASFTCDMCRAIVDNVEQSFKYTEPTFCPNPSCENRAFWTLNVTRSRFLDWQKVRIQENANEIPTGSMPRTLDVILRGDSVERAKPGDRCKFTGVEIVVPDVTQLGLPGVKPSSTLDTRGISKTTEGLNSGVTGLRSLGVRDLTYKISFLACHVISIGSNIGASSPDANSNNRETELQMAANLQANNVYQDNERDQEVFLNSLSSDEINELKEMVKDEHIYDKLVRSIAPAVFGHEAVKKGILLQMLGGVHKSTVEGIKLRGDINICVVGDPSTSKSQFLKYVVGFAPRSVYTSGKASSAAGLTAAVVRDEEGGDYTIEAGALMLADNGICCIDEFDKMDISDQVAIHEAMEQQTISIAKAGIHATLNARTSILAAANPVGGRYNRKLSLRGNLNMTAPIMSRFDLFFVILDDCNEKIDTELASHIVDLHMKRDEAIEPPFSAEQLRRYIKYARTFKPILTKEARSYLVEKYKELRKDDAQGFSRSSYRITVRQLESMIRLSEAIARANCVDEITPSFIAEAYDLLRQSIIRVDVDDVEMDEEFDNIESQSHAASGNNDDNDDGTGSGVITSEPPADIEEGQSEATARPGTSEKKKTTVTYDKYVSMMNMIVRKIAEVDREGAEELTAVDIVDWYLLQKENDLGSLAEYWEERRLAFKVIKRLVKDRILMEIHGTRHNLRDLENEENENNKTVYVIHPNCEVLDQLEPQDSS

B1: Mcm5 (subunit of the MCM complex) (natural protein)
chain: MSFDRPEIYSAPVLQGESPNDDDNTEIIKSFKNFILEFRLDSQFIYRDQLRNNILVKNYSLTVNMEHLIGYNEDIYKKLSDEPSDIIPLFETAITQVAKRISILSRAQSANNNDKDPENTSMDTDSLLLNSLPTFQLILNSNANQIPLRDLDSEHVSKIVRLSGIIISTSVLSSRATYLSIMCRNCRHTTSITINNFNSITGNTVSLPRSCLSTIESESSMANESNIGDESTKKNCGPDPYIIIHESSKFIDQQFLKLQEIPELVPVGEMPRNLTMTCDRYLTNKVIPGTRVTIVGIYSIYNSKNGAGSGRSGGGNGGSGVAIRTPYIKILGIQSDVETSSIWNSVTMFTEEEEEEFLQLSRNPKLYEILTNSIAPSIFGNEDIKKAIVCLLMGGSKKILPDGMRLRGDINVLLLGDPGTAKSQLLKFVEKVSPIAVYTSGKGSSAAGLTASVQRDPMTREFYLEGGAMVLADGGVVCIDEFDKMRDEDRVAIHEAMEQQTISIAKAGITTVLNSRTSVLAAANPIYGRYDDLKSPGDNIDFQTTILSRFDMIFIVKDDHNEERDISIANHVINIHTGNANAMQNQQEENGSEISIEKMKRYITYCRLKCAPRLSPQAAEKLSSNFVTIRKQLLINELESTERSSIPITIRQLEAIIRITESLAKLELSPIAQERHVDEAIRLFQASTMDAASQDPIGGLNQASGTSLSEIRRFEQELKRRLPIGWSTSYQTLRREFVDTHRFSQLALDKALYALEKHETIQLRHQGQNIYRSGV
Consider B1, for which the binding result in assay [1] is reported as “binds”. As for B2, in assay [2], the binding result was “binds”.

B3: Mcm2 (subunit of the MCM complex) (natural protein)
chain: MSDNRRRRREEDDSDSENELPPSSPQQHFRGGMNPVSSPIGSPDMINPEGDDNEVDDVPDIDEVEEQMNEVDLMDDNMYEDYAADHNRDRYDPDQVDDREQQELSLSERRRIDAQLNERDRLLRNVAYIDDEDEEQEGAAQLDEMGLPVQRRRRRRQYEDLENSDDDLLSDMDIDPLREELTLESLSNVKANSYSEWITQPNVSRTIARELKSFLLEYTDETGRSVYGARIRTLGEMNSESLEVNYRHLAESKAILALFLAKCPEEMLKIFDLVAMEATELHYPDYARIHSEIHVRISDFPTIYSLRELRESNLSSLVRVTGVVTRRTGVFPQLKYVKFNCLKCGSILGPFFQDSNEEIRISFCTNCKSKGPFRVNGEKTVYRNYQRVTLQEAPGTVPPGRLPRHREVILLADLVDVSKPGEEVEVTGIYKNNYDGNLNAKNGFPVFATIIEANSIKRREGNTANEGEEGLDVFSWTEEEEREFRKISRDRGIIDKIISSMAPSIYGHRDIKTAVACSLFGGVPKNVNGKHSIRGDINVLLLGDPGTAKSQILKYVEKTAHRAVFATGQGASAVGLTASVRKDPITKEWTLEGGALVLADKGVCLIDEFDKMNDQDRTSIHEAMEQQSISISKAGIVTTLQARCSIIAAANPNGGRYNSTLPLAQNVSLTEPILSRFDILCVVRDLVDEEADERLATFVVDSHVRSHPENDEDREGEELKNNGESAIEQGEDEINEQLNARQRRLQRQRKKEEEISPIPQELLMKYIHYARTKIYPKLHQMDMDKVSRVYADLRRESISTGSFPITVRHLESILRIAESFAKMRLSEFVSSYDLDRAIKVVVDSFVDAQKVSVRRQLRRSFAIYTLGH
Take B3: the binding result in assay [3] is “binds”.

For B4, in assay [3], the binding result is “binds”.

B5: Mcm4 (subunit of the MCM complex) (natural protein)
chain: MSQQSSSPTKEDNNSSSPVVPNPDSVPPQLSSPALFYSSSSSQGDIYGRNNSQNLSQGEGNIRAAIGSSPLNFPSSSQRQNSDVFQSQGRQGRIRSSASASGRSRYHSDLRSDRALPTSSSSLGRNGQNRVHMRRNDIHTSDLSSPRRIVDFDTRSGVNTLDTSSSSAPPSEASEPLRIIWGTNVSIQECTTNFRNFLMSFKYKFRKILDEREEFINNTTDEELYYIKQLNEMRELGTSNLNLDARNLLAYKQTEDLYHQLLNYPQEVISIMDQTIKDCMVSLIVDNNLDYDLDEIETKFYKVRPYNVGSCKGMRELNPNDIDKLINLKGLVLRSTPVIPDMKVAFFKCNVCDHTMAVEIDRGVIQEPARCERIDCNEPNSMSLIHNRCSFADKQVIKLQETPDFVPDGQTPHSISLCVYDELVDSCRAGDRIEVTGTFRSIPIRANSRQRVLKSLYKTYVDVVHVKKVSDKRLDVDTSTIEQELMQNKVDHNEVEEVRQITDQDLAKIREVAAREDLYSLLARSIAPSIYELEDVKKGILLQLFGGTNKTFTKGGRYRGDINILLCGDPSTSKSQILQYVHKITPRGVYTSGKGSSAVGLTAYITRDVDTKQLVLESGALVLSDGGVCCIDEFDKMSDSTRSVLHEVMEQQTISIAKAGIITTLNARSSILASANPIGSRYNPNLPVTENIDLPPPLLSRFDLVYLVLDKVDEKNDRELAKHLTNLYLEDKPEHISQDDVLPVEFLTMYISYAKEHIHPIITEAAKTELVRAYVGMRKMGDDSRSDEKRITATTRQLESMIRLAEAHAKMKLKNVVELEDVQEAVRLIRSAIKDYATDPKTGKIDMNLVQTGKSVIQRKLQEDLSREIMNVLKDQASDSMSFNELIKQINEHSQDRVESSDIQEALSRLQQEDKVIVLGEGVRRSVRLNNRV
As for B5, in assay [3], the binding result was “binds”.
